Measurements from the Human Domainome abundance scans (Beltran et al. 2025).
± gives the uncertainty stated by the source.

B1: Metastasis-associated protein MTA3, residues 265 to 317; numbered along this chain, Q9BTC8 (parent)
chain: RDEMEEWSASEASLFEEALEKYGKDFNDIRQDFLPWKSLTSIIEYYYMWKTTD

Variants of: B1
Test: abundance fitness (aPCA) (normalised: wild type 0, dead -1); higher = more abundant; growth selection in yeast, the domain comes from the species named
Conditions: Homo sapiens

Abundance fitness, by site and new letter:
E44: W -1.05 ± 0.5, P -0.922 ± 0.098, V -0.758 ± 0.18, R 0.079 ± 0.094, I -0.779 ± 0.15, N 0.177 ± 0.18, H -0.438 ± 0.14, M -0.961 ± 0.38, C -0.808 ± 0.43, Y -0.834 ± 0.15, K -0.246 ± 0.13, Q 0.015 ± 0.13, G -0.691 ± 0.12, L -0.694 ± 0.092, D -0.145 ± 0.15, T -0.443 ± 0.081, A -0.477 ± 0.1
T51: N -0.027 ± 0.083, Q 0.433 ± 0.14, V -0.624 ± 0.14, P -0.1 ± 0.1, H -0.235 ± 0.1, D 0.134 ± 0.18, W -0.853 ± 0.17, S -0.068 ± 0.1, L -0.147 ± 0.084, G 0.076 ± 0.075, M -0.542 ± 0.16, F -0.732 ± 0.35, R -0.097 ± 0.075, C -0.244 ± 0.12, A 0.185 ± 0.11
K24: C 0.163 ± 0.071, N 0.333 ± 0.17, H -0.362 ± 0.08, R -0.151 ± 0.094, I -0.536 ± 0.17, G -0.208 ± 0.13, P 0.307 ± 0.061, A 0.104 ± 0.075, E -0.133 ± 0.17, D -0.165 ± 0.096, L -0.006 ± 0.076, S -0.108 ± 0.076, F -0.992 ± 0.19, Q -0.062 ± 0.074, Y -0.331 ± 0.18, W -0.935 ± 0.38, V -0.217 ± 0.095
G23: Y -0.353 ± 0.36, R -0.844 ± 0.13, Q -0.759 ± 0.11, H -0.784 ± 0.22, N -0.638 ± 0.19, I -1.01 ± 0.24, E -0.815 ± 0.26, S -0.792 ± 0.099, K -1.05 ± 0.35, V -0.888 ± 0.11, P -0.81 ± 0.16, A -0.536 ± 0.12, M -0.735 ± 0.11, T -0.92 ± 0.22, W -0.868 ± 0.29, L -0.745 ± 0.086, C -0.368 ± 0.1, D -0.558 ± 0.19
D32: S 1.09 ± 0.32
K50: D -0.593 ± 0.27, C -0.279 ± 0.13, M -0.171 ± 0.13, R -0.288 ± 0.072, I -0.653 ± 0.089, H -0.127 ± 0.1, T -0.271 ± 0.08, P -0.472 ± 0.089, E -0.278 ± 0.092, W -0.882 ± 0.26, Q -0.102 ± 0.077, L -0.444 ± 0.074, F -0.62 ± 0.17, N 0.024 ± 0.13, A -0.42 ± 0.083, V 0.311 ± 0.11, S -0.2 ± 0.074, G -0.877 ± 0.18
S41: F -0.54 ± 0.16, P 0.242 ± 0.14, M -0.794 ± 0.21, Q -0.226 ± 0.13, I -1.09 ± 0.36, C -0.681 ± 0.2, G -0.954 ± 0.12, N -0.561 ± 0.13, R -0.868 ± 0.13, Y -0.488 ± 0.11, D 0.05 ± 0.089, A -0.139 ± 0.093, T -0.804 ± 0.094, E 0.161 ± 0.12, V -0.837 ± 0.13, H -0.717 ± 0.21, L -0.577 ± 0.1, K -0.781 ± 0.12, W -0.901 ± 0.16
Y22: W -0.84 ± 0.28
W36: S -0.645 ± 0.083, A -0.788 ± 0.08, V -0.657 ± 0.076, C -0.733 ± 0.092, E -0.884 ± 0.3, M -0.677 ± 0.11, L -0.749 ± 0.082, K -0.217 ± 0.12, Y -0.615 ± 0.082, T -0.696 ± 0.084, I -0.874 ± 0.11, N -0.177 ± 0.1, H -0.239 ± 0.069, G -0.484 ± 0.092, R -0.58 ± 0.091, Q -0.422 ± 0.17
D25: L -0.741 ± 0.13, A 0.556 ± 0.086, F -0.594 ± 0.28, Y -0.392 ± 0.2, N 0.356 ± 0.16, I -0.162 ± 0.18, T -0.838 ± 0.17, W -0.776 ± 0.17, S 0.366 ± 0.086, V -0.818 ± 0.2, Q 0.088 ± 0.095, K 0.375 ± 0.081, C -0.026 ± 0.11, G -0.47 ± 0.16, E -0.087 ± 0.19, M -0.25 ± 0.16, H -0.125 ± 0.14
N27: A -0.015 ± 0.22, S 0.037 ± 0.15, W -0.635 ± 0.27, I 0.743 ± 0.18, M -0.464 ± 0.13, E 0.431 ± 0.19, L -0.602 ± 0.22, Y -0.305 ± 0.49, T -0.148 ± 0.35, V -0.246 ± 0.09, Q -0.075 ± 0.31, D 0.074 ± 0.15
L39: G -0.896 ± 0.17, A -0.6 ± 0.21, C -0.733 ± 0.17, D -0.483 ± 0.26, E -0.865 ± 0.34, V -0.327 ± 0.16, R -0.348 ± 0.081, T -0.389 ± 0.19, M -0.541 ± 0.46, S -0.581 ± 0.22
W49: H 0.122 ± 0.12, N 0.404 ± 0.15, M 0.353 ± 0.12, L 0.112 ± 0.061, D -0.532 ± 0.36, V -0.204 ± 0.083
